Experimental data reported in PMC5527654.

molecular target: T1, 6xHis-PA3225 (Pseudomonas aeruginosa UCBPP-PA14) (UniProt A0A0H2ZDR5); test: competition
T1 sequence: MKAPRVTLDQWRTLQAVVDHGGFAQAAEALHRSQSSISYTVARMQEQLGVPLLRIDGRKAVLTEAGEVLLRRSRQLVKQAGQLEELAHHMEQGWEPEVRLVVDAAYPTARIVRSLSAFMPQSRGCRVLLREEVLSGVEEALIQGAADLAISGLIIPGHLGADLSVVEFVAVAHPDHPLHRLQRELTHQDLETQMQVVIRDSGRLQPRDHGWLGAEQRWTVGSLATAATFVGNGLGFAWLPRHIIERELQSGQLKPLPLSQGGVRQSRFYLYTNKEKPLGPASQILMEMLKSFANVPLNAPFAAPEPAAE

| Sequence | binding |
| --- | --- |
| ATGGCTGGCGTTCGTTGCATAGCGTTGTCCTCATGAGCGAAAGCGGCCGATGCAGCGTGAAGGCGCTGCACCGGCTCGAAGAAGGCAGGCAAAATACTTACATTCATAGGTGTTTGTAAACGTCCGAAAGC (double strand) [PmexAB-oprM probe 4 unlabeled] | no binding |
| TAGTTGACTGGATCAACCACATTTACATTAGGTTTACTCGGCCAAACCAATGAACTACCCCGTGAATCCCGACCTGATGCCCGCGCTGATGGCGGTCTTCCAGCATGTACGGACGCGCATCCAGAGCGAGCTCGATT (double strand) [PmexAB-oprM probe 2 unlabeled] | no binding |
| ATGTGGTTGATCCAGTCAACTATTTTGCTTATTTTAGTTGACCTTATCAACCTTGTTTCAGGTTCTGAATATGGGCCATGGCGCCGGGTGGATAACCGGCCATCGAGCTAAAACGTTTCAGGTGTTTTCACGCGAGGCTTTCGGACGTTTACA (double strand) [PmexAB-oprM probe 3 unlabeled] | binds |

molecular target: T1, 6xHis-PA3225 (Pseudomonas aeruginosa UCBPP-PA14); test: EMSA

| Sequence | binding |
| --- | --- |
| TAGTTGACTGGATCAACCACATTTACATTAGGTTTACTCGGCCAAACCAATGAACTACCCCGTGAATCCCGACCTGATGCCCGCGCTGATGGCGGTCTTCCAGCATGTACGGACGCGCATCCAGAGCGAGCTCGATT (double strand) [Cy5-PmexAB-oprM probe 2] | no binding |
| ATGTGGTTGATCCAGTCAACTATTTTGCTTATTTTAGTTGACCTTATCAACCTTGTTTCAGGTTCTGAATATGGGCCATGGCGCCGGGTGGATAACCGGCCATCGAGCTAAAACGTTTCAGGTGTTTTCACGCGAGGCTTTCGGACGTTTACA (double strand) [Cy5-PmexAB-oprM probe 3] | binds |
| ATGGCTGGCGTTCGTTGCATAGCGTTGTCCTCATGAGCGAAAGCGGCCGATGCAGCGTGAAGGCGCTGCACCGGCTCGAAGAAGGCAGGCAAAATACTTACATTCATAGGTGTTTGTAAACGTCCGAAAGC (double strand) [Cy5-PmexAB-oprM probe 4] | no binding |
